# Assay results as given in patent publication US20130251703A1 (Novartis, published 2013).
# Legend:
# [1] = target: T1, HER3 D2: CD33-[Human HER3, residues 185-329]-TAG (human, UniProt P21860 185-329); test: HER3 domain binding ELISA: recombinant protein coated on the plate, antibody titrated; the y axis reads 'Fluorescence Units'
# T1 construct: also called D2-Tag; domain 2; not shown: C-terminal TAG (e.g. FLAG TAG)
# Experimental: (§1) All wells were then washed with PBS/0.1% Tween-20, blocked with PBS/1% BSA/0.1% Tween-20 and washed with PBS/0.1% Tween-20. Anti-HER3 antibodies were added to the relevant wells up to a final concentration of 10 μg/mL and incubated at room temperature. Plates were washed with PBS/0.1% Tween-20 prior to the addition of the appropriate peroxidase linked detection antibody diluted 1/10000 in PBS/1% BSA/0.1% Tween-20. The detection antibodies used were goat anti-mouse (Pierce, 31432), rabbit anti-goat (Pierce, 31402) and goat anti-human (Pierce, 31412). Plates were incubated at room temperature before washing with PBS/0.1% Tween-20. 100 μl TMB (3,3′,5,5′ tetramethyl benzidine) substrate solution (BioFx) was added to all wells before stopping the reaction with 50 μl 12.5% H₂SO₄. […] Where appropriate, dose response curves were analyzed using Graphpad Prism.
# [2] = target: T2, HER3 D1-2: CD33-[Human HER3, residues 20-329]-TAG (human, UniProt P21860 20-329); test: as above
# T2 construct: also called D1-2-Tag; domains 1 and 2; not shown: C-terminal TAG (e.g. FLAG TAG)
# Experimental: as §1
# [3] = target: T3, human HER3 endogenously expressed on human cancer cells (SK-Br-3, BT-474, MCF7) (human, UniProt P21860 20-1342); test: cell-based or functional assay
# [4] = target: T4, Rat HER3: CD33-[Rat HER3, residues 20-643]-TAG (rat, UniProt Q62799 20-643); test: solution equilibrium titration (SET), IgG, ECL read-out
# T4 construct: also called ra HER3-Tag; not shown: C-terminal TAG (e.g. FLAG TAG)
# [5] = target: T5, Cyno HER3: CD33-[Cyno HER3, residues 20-643]-TAG (cynomolgus monkey, UniProt G7PIG5 20-643); test: as above
# T5 construct: also called cy HER3-Tag; not shown: C-terminal TAG (e.g. FLAG TAG)
# [6] = target: T6, Mu HER3: CD33-[Murine HER3, residues 20-643]-TAG (mouse, UniProt Q61526 20-643); test: as above
# T6 construct: also called mu HER3-Tag; not shown: C-terminal TAG (e.g. FLAG TAG)
# [7] = target: T7, Hu HER3: CD33-[Human HER3, residues 20-640]-TAG (human, UniProt P21860 20-640); test: as above
# T7 construct: also called hu HER3-Tag; HER3-Tag; not shown: C-terminal TAG (e.g. FLAG TAG)
# [8] = target: T3, human HER3 endogenously expressed on …; test: cell-based or functional assay; remark: listed apart in the source
# [9] = target: T3, human HER3 endogenously expressed on …; test: cell-based or functional assay; remark: listed apart in the source
# [10] = target: T3, human HER3 endogenously expressed on …; test: FACS titration of IgG on SK-Br-3 cells (endogenous HER3)
# Experimental: The binding of antibodies to endogenous human antigen expressed on human cancer cells was accessed by FACS. In order to determine antibody EC₅₀ values SK-Br-3 cells were harvested with accutase and diluted to 1×10⁶ cells/mL in FACS buffer (PBS/3% FBS/0.2% NaN₃). 1×10⁵ cells/well were added to each well of a 96-well plate (Nunc) and centrifuged at 210 g for 5 minutes at 4° C. before removing the supernatant. Serial dilutions of test antibodies (diluted in 1:4 dilution steps with FACS buffer) were added to the pelleted cells and incubated for 1 hour on ice. The cells were washed and pelleted three times with […] FACS buffer. PE conjugated goat anti-human IgG (Jackson ImmunoResearch) diluted 1/200 with FACS buffer were added to the cells and incubated on ice for 1 hour. Additional washing steps were performed three times with 100 μL FACS buffer followed by centrifugation steps at 210 g for 5 minutes at 4° C. Finally, cells were resuspended in 200 μL FACS buffer and fluorescence values were measured with a FACSArray (BD Biosciences). The amount of cell surface bound anti-HER3 antibody was assessed by measuring the mean channel fluorescence.
binding result [1],binding result [2],MCF7 proliferation % inhibition [3],MCF7 proliferation IC50 [3],SK-Br-3 proliferation % inhibition [3],SK-Br-3 proliferation IC50 [3],Kd [4],Kd [5],Kd [6],Kd [7],BT-474 pAkt % inhibition [8],BT-474 pAkt IC50 [8],MCF7 pAkt % inhibition [8],MCF7 pAkt IC50 [8],SK-Br-3 pAkt % inhibition [8],MCF7 pHER3 % inhibition [9],MCF7 pHER3 IC50 [9],SK-Br-3 pHER3 % inhibition [9],SK-Br-3 pHER3 IC50 [9],EC50 [10],Binder,also measured
no binding (tested: 10 µg/ml),no binding (tested: 10 µg/ml),42%,2.54 nM,40%,0.121 nM,0.31 nM,0.257 nM,0.336 nM,0.102 nM,63%,466 pM,78%,815 pM,86%,75%,447 pM,71%,179 pM,–,"MOR12615 (antibody, human IgG1, lambda, V domains shown, Tested as IgG) VH: QVQLVQSGAEVKKPGASVKVSCKASGYTFTSYDIHWVRQAPGQGLEWMGRIDPYSGNTNYAQKFQGRVTMTRDTSISTAYMELSRLRSEDTAVYYCARGSFYTRDSYFDVWGQGTLVTVSS VL: DIALTQPASVSGSPGQSITISCTGTSSDVGTYNQVSWYQQHPGKAPKLMIYGVSKRPSGVSNRFSGSKSGNTASLTISGLQAEDEADYYCSSRDLIGHYVFGGGTKLTVLG",BT-474 proliferation % inhibition [3]: 35%; BT-474 proliferation IC50 [3]: 0.459 nM; SK-Br-3 pAkt IC50 [8]: 101 pM; BT474 pHER3 % inhibition [9]: 56%; BT474 pHER3 IC50 [9]: 421 pM
–,–,–,–,48%,0.047 nM,0.285 nM,0.14 nM,0.22 nM,0.21 nM,–,–,–,–,–,73%,200 pM,69%,97 pM,0.179 nM,"MOR14537 (antibody, human IgG1, lambda, V domains shown, Tested as IgG) VH: QVQLVQSGAEVKKPGASVKVSCKASGYTFTSYDIHWVRQAPGQGLEWMGRIDPYSGNTNYAQKFQGRVTMTRDTSISTAYMELSRLRSDDTAVYYCARGSFYTRDSYFDVWGQGTLVTVSS VL: QSALTQPASVSGSPGQSITISCTGTSSDVGTYNQVSWYQQHPGKAPKLMIYGVSKRPSGVSNRFSGSKSGNTASLTISGLQAEDEADYYCSSATQKPDVTVFGGGTKLTVLG",–
–,–,–,–,53%,0.081 nM,0.051 nM,0.026 nM,0.023 nM,0.045 nM,–,–,–,–,–,83%,615 pM,71%,263 pM,0.279 nM,"MOR14538 (antibody, human IgG1, lambda, V domains shown, Tested as IgG) VH: QVQLVQSGAEVKKPGASVKVSCKASGYTFTSYDIHWVRQAPGQGLEWMGRIDPYSGNTNYAQKFQGRVTMTRDTSISTAYMELSRLRSDDTAVYYCARGSFYTRDSYFDVWGQGTLVTVSS VL: QSALTQPASVSGSPGQSITISCTGTSSDVGTYNQVSWYQQHPGKAPKLMIYGVSKRPSGVSNRFSGSKSGNTASLTISGLQAEDEADYYCASADHSYHTVFGGGTKLTVLG",–
no binding (tested: 10 µg/ml),no binding (tested: 10 µg/ml),39%,0.073 nM,42%,0.015 nM,5.2 nM,2.2 nM,1.9 nM,1.1 nM,70%,225 pM,74%,235 pM,85%,79%,57 pM,71%,29 pM,–,"MOR12604 (antibody, V domains shown, Tested as IgG) VH: QVQLVQSGAEVKKPGSSVKVSCKASGGTFSSYAISWVRQAPGQGLEWMGLIIPRYGKARYAQKFQGRVTITADESTSTAYMELSSLRSEDTAVYYCARNWPYYYMDFWGQGTLVTVSS VL: DIVLTQSPATLSLSPGERATLSCRASQNIVFNLAWYQQKPGQAPRLLIYDASNRATGVPARFSGSGSGTDFTLTISSLEPEDFAVYYCQQKKSMPLTFGQGTKVEIKR",SK-Br-3 pAkt IC50 [8]: 17 pM; BT474 pHER3 % inhibition [9]: 62%; BT474 pHER3 IC50 [9]: 142 pM
–,–,–,–,46%,0.026 nM,9.65 nM,2.95 nM,2 nM,0.64 nM,–,–,–,–,–,67%,50 pM,68%,20 pM,0.042 nM,"MOR14533 (antibody, human IgG1, kappa, V domains shown, Tested as IgG) VH: QVQLVQSGAEVKKPGSSVKVSCKASGGTFSSYAISWVRQAPGQGLEWMGLIIPRYGKARYAQKFQGRVTITADESTSTAYMELSSLRSEDTAVYYCARNWPYYYMDFWGQGTLVTVSS VL: EIVLTQSPATLSLSPGERATLSCRASQNIVFNLAWYQQKPGQAPRLLIYDASNRATGIPARFSGSGSGTDFTLTISSLEPEDFAVYYCQQTKSKPSPTFGQGTKVEIKR",–
–,–,–,–,40%,0.027 nM,30 nM,6.35 nM,4 nM,2.15 nM,–,–,–,–,–,71%,16 pM,63%,10 pM,0.028 nM,"MOR14534 (antibody, human IgG1, kappa, V domains shown, Tested as IgG) VH: QVQLVQSGAEVKKPGSSVKVSCKASGGTFSSYAISWVRQAPGQGLEWMGLIIPRYGKARYAQKFQGRVTITADESTSTAYMELSSLRSEDTAVYYCARNWPYYYMDFWGQGTLVTVSS VL: EIVLTQSPATLSLSPGERATLSCRASQNIVFNLAWYQQKPGQAPRLLIYDASNRATGIPARFSGSGSGTDFTLTISSLEPEDFAVYYCQQTKNRPPTFGQGTKVEIKR",–
